From paper PMC3796022 (Biochemistry, 2013)
One block for each binder: values may come before it.

B1: recombinant human αB-crystallin (natural protein, UniProt P02511 1-175, looked up)
chain: MDIAIHHPWIRRPFFPFHSPSRLFDQFFGEHLLESDLFPTSTSLSPFYLRPPSFLRAPSWFDTGLSEMRLEKDRFSVNLDVKHFSPEELKVKVLGDVIEVHGKHEERQDEHGFISREFHRKYRIPADVDPLTITSSLSSDGVLTVNGPRKQVSGPERTIPITREEKPAVTAAPKK

Columns and labels:
αA66-80 peptide = biological target: T1, αA66-80 peptide (human); assay: bis-ANS fluorescence
T1 peptide: SDRDKFVIFLDVKHF

[1] = biological target: B1; assay: cross-linking
cross-linking = biological target: the molecule itself; assay: cross-linking

binding result (αA66-80 peptide): binds
Binder: EEKPAVTAAPK [αB-crystallin C-terminal peptide 164–174]

binding result [1]: binds
Binder: SDRDKFVIFLDVKHFK (biotin on the added C-terminal lysine (SDRDKFVIFLDVKHFK-Biotin)) [C-terminal biotinylated αA66-80]

Binder: B1
binding result (cross-linking): binds
